Test results as given in publication PMC9484798.

Molecular target: U6, a member of the malonate semialdehyde decarboxylase (MSAD)-like subgroup of the tautomerase superfamily
Test: native MS

Substance: U6, a member of the malonate semialdehyde decarboxylase (MSAD)-like subgroup of the tautomerase superfamily (enzyme)
- stoichiometry N: 3
